The source of these data is PMC8124269, “Antiviral Properties of the NSAID Drug Naproxen Targeting the Nucleoprotein of SARS-CoV-2 Coronavirus”.

This series addresses SARS-CoV-2 N NTD (batch 2, monomer) (SARS-CoV-2, UniProt P0DTC9 50-173). Nature of the series: DLS; Anisotropy: 10 mM Tris pH 8.0, 50 mM NaCl, 2 mM beta-mercaptoethanol, thermostated (temperature not stated); DLS: 20 mM Tris pH 7.9, 100 mM NaCl, 20 C. As to conditions: protein: recombinant; tags: N-terminal His6 (pET-28a); single strand.

ATATATATCTATGTCCATATATATATAAAACACAGCGTGTGTGTGTAA (ssDNA) [48-mer ssDNA]: the binding result is “binds”.
